The text below walks through data of paper PMC12752688.

Assay [1] has as its target Trigger factor (Escherichia coli) (UniProt P0A850). Particulars: cited from earlier work.
The target of assay [2] is native 70S ribosome from E. coli (E. coli) (UniProt P0ADZ0). Description: high-speed AFM (HS-AFM); 70S ribosomes without nascent chain partially immobilised on mica, TF in the imaging solution at a molar ratio of 200:1 TF:ribosome; 1 frame/s, 22-25 °C.
The target in assay [3] is ribosome-nascent chain complex (not stated | E. coli) (UniProt P0ADZ0). Put plainly: high-speed AFM (HS-AFM); RNC (2 nM) on mica, TF (1 uM) in the imaging solution, physiological buffer; 1 frame/s, 22-25 °C; dwell time analysis of single binding events.
The target in assay [4] is Trigger Factor (UniProt P0A850). Put plainly: high-speed AFM (HS-AFM); TF alone at 5 uM on mica; projected area and height compared with monomers.

Trigger Factor (from UniProt P0A850 1-432) (natural protein), sequence (P0A850 whole entry): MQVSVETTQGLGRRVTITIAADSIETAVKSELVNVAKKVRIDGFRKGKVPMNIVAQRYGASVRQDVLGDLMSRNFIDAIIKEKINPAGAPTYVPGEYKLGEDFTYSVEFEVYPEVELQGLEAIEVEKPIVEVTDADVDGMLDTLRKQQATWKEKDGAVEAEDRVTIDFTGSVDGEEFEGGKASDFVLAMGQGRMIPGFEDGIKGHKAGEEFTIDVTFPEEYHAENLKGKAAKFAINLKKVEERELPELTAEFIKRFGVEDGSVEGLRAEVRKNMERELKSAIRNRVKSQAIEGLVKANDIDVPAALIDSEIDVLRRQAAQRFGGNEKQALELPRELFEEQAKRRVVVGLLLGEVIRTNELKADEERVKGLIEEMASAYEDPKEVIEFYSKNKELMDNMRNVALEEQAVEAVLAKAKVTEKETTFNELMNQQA
Trigger factor, sequence (P0A850 whole entry): as above

The term Kd denotes a measure of binding affinity in units of concentration. Turning to Trigger factor (from UniProt P0A850), the equilibrium dissociation constant (Kd) in assay [1] is 1.5 µM.
One may read the stoichiometry N as a count of units in the complex or per binding partner. Regarding “Trigger Factor (from UniProt P0A850 1-432) (natural protein)”, the duration of association in assay [2] was < 5 s. In addition, in assay [3], the duration of association is > 5 s, the duration of individual binding events is > 30 s, the longest interaction time (exit-tunnel site) was < 80 s and the longest interaction time (peripheral site) was > 30 s. Moreover, in assay [3], the mean interaction time (exit-tunnel site) amounted to 8 s, the mean interaction time (peripheral site) came out at 3.9 s and the stoichiometry N is 2. This substance also showed a stoichiometry N in assay [4] of 2.
